# T1: rat PAI-1 (rat) (UniProt P20961)
# T1 sequence: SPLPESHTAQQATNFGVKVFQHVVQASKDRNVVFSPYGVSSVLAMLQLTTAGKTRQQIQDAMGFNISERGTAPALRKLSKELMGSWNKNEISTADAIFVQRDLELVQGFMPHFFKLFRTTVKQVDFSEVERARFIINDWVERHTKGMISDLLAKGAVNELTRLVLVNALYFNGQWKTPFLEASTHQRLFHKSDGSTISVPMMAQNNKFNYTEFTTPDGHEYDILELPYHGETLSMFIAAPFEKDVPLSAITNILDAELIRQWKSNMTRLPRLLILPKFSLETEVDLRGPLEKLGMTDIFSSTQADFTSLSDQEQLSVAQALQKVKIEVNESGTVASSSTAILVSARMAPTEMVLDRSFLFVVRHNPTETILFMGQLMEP
# Legend:
# [1] = target: Antibody 16 IgG1, not germlined; experiment: competition binding assay: Antibody 16 IgG adsorbed to the plate, biotinylated active human PAI-1 plus a titration of the unlabelled competitor, streptavidin-Europium detection
# rat PAI-1 (rat) = target: T1, rat PAI-1 (rat); experiment: cell-based or functional assay
# [2] = target: active human PAI-1, recombinant, wild-type, non-glycosylated (E. coli) (human) (UniProt P05121); experiment: cell-based or functional assay
# Sequence of active human PAI-1, recombinant, wild-type, non-glycosylated (E. coli) (human) (P05121 24-402): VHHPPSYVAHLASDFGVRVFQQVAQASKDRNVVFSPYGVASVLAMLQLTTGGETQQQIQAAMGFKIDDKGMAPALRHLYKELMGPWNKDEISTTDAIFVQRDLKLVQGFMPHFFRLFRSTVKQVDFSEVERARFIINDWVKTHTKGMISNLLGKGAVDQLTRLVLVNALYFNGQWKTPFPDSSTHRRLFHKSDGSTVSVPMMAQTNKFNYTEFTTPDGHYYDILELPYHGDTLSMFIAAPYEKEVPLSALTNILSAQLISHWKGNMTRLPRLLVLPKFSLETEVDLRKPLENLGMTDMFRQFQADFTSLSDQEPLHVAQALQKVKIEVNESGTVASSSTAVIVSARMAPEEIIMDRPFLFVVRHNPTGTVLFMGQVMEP
IC50 (read off the curve) [1],Chromogenic (IC50 in nM) rat (rat PAI-1 (rat)),Chromogenic IC50 ratio rat/human (rat PAI-1 (rat)),HT-1080 Exo PAI-1 (IC50 in nM) rat (rat PAI-1 (rat)),"IC50 in the rat chromogenic assay, fold higher than in the human assay (rat PAI-1 (rat))",Chromogenic (IC50 in nM) human [2],Binder
6 nM,,,,,,mouse PAI-1 (protein) ALPLRESHTAHQATDFGVKVFQQVVQASKDRNVVFSPYGVSSVLAMLQMTTAGKTRRQIQDAMGFKVNEKGTAHALRQLSKELMGPWNKNEISTADAIFVQRDLELVQGFMPHFFKLFQTMVKQVDFSEVERARFIINDWVERHTKGMINDLLAKGAVDELTRLVLVNALYFSGQWKTPFLEASTHQRLFHKSDGSTVSVPMMAQSNKFNYTEFTTPDGLEYDVVELPYQGDTLSMFIAAPFEKDVHLSALTNILDAELIRQWKGNMTRLPRLLILPKFSLETEVDLRGPLEKLGMPDMFSATLADFTSLSDQEQLSVAQALQKVRIEVNESGTVASSSTAFVISARMAPTEMVIDRSFLFVVRHNPTETILFMGQVMES
,238 nM,190 fold,37 nM,180 fold,1.3 nM,"Antibody 18 scFv (scFv, V domains shown, part only, linker not stated) VH: QVQLQQSGAEVKKPGSSVKVSCKASGGTFSSYAISWVRQAPGQGLEWMGGIIPTFGTANYAQKLQGRVTITADESTSTAYMELSGLRSEDTAVYYCAREKRQWLEGHFDYWGRGTPVTVSS VL: DIQMTQSPSFLSASIGDRVTITCRASEGIYHALAWYQQKPGKAPKLLIYRASSLASGAPSRFSGSGSGTDFTLTISSLQPDDFATYYCQQYSNYPLTFGGGTKLEIK"
